From US20150147274A1 (CANCER RESEARCH TECHNOLOGY, published 2015)
Where a chain is given by its changes, count along the chain named.

B1: 112_H2 (scFv)
scFv: QMQLVQSGAEVKKPGAPVKVSCKVSGYTFTDYYMHWVQQAPGKGLEWMGLVDPEDGETIYAEKFQGRVTITADTSTDTAYMELSSLRSEDTAVYYCATDATTPYWGMQVWGQGTLVTVSSLEGGGGSGGGGSGGGASDIQMTQSPSSLSASVGDRVTITCQASQDISNYLNWYQQKPGRAPKVLIYDASNLETGVPSRFSGSGSGTEFTLTISNLRPDDFATYYCQQGDSFPLTFGGGTKVEIK
notes: not shown: 6xHis/tri-FLAG tags
B2: 108_E4 (scFv)
scFv: B1 scFv with Q108I, V109W
notes: as for B1
B3: 107_B11 (scFv)
scFv: B1 scFv with Q108A, V109M
notes: as for B1
B4: 107_B1 (scFv)
scFv: B1 scFv with T102H, P103I, G106N, Q108D, V109I
notes: as for B1
B5: 108_G3 (scFv)
scFv: B1 scFv with G106A, M107P, Q108W, V109R
notes: as for B1
B6: 107_A6 (scFv)
scFv: B1 scFv with G106T, M107P, Q108F
notes: as for B1
B7: 109_G8 (scFv)
scFv: B1 scFv with Q108A, V109T
notes: as for B1
B8: 107_B2 (scFv)
scFv: B1 scFv with V109M
notes: as for B1
B9: 108_D1 (scFv)
scFv: B1 scFv with G106T, M107P, Q108W, V109K
notes: as for B1
B10: 108_D11 (scFv)
scFv: B1 scFv with M107A, Q108A, V109A
notes: as for B1
B11: 107_B6 (scFv)
scFv: B1 scFv with V109K
notes: as for B1
B12: 108_D10 (scFv)
scFv: B1 scFv with Q108S, V109H
notes: as for B1
B13: 108_E5 (scFv)
scFv: B1 scFv with Q108W, V109I
notes: as for B1
B14: 107_B4 (scFv)
scFv: B1 scFv with G106F, M107P, Q108N
notes: as for B1
B15: 107_B3 (scFv)
scFv: B1 scFv with Q108K, V109M
notes: as for B1
B16: 108_D4 (scFv)
scFv: B1 scFv with Q108S, V109G
notes: as for B1
B17: 107_B10 (scFv)
scFv: B1 scFv with Q108R
notes: as for B1
B18: 108_E7 (scFv)
scFv: B1 scFv with Q108W, V109R
notes: as for B1
B19: 107_A3 (scFv)
scFv: B1 scFv with P103A, V109K
notes: as for B1
B20: 107_B12 (scFv)
scFv: B1 scFv with Q108T, V109A
notes: as for B1
B21: 107_A12 (scFv)
scFv: B1 scFv with G106W, Q108A, V109K
notes: as for B1
B22: 108_G1 (scFv)
scFv: B1 scFv with G106F, M107P, Q108R, V109M
notes: as for B1
B23: 108_C8 (scFv)
scFv: B1 scFv with G106F, M107P, Q108Y, V109I
notes: as for B1
B24: 108_G5 (scFv)
scFv: B1 scFv with G106W, V109S
notes: as for B1
B25: 108_D12 (scFv)
scFv: B1 scFv with G106T, M107P, Q108Y
notes: as for B1
B26: 108_F3 (scFv)
scFv: B1 scFv with Q108A, V109K
notes: as for B1
B27: 108_D9 (scFv)
scFv: B1 scFv with G106Y, M107P, Q108Y
notes: as for B1
B28: 108_E12 (scFv)
scFv: B1 scFv with G106L, M107A, Q108A, V109E
notes: as for B1
B29: 107_A10 (scFv)
scFv: B1 scFv with V109E
notes: as for B1
B30: 107_C4 (scFv)
scFv: B1 scFv with G106S, M107P, Q108W, V109M
notes: as for B1
B31: 108_E8 (scFv)
scFv: B1 scFv with G106W, V109K
notes: as for B1
B32: 108_E1 (scFv)
scFv: B1 scFv with G106F, M107P, Q108L
notes: as for B1
B33: 107_A5 (scFv)
scFv: B1 scFv with Q108S, V109K
notes: as for B1
B34: 107_C2 (scFv)
scFv: B1 scFv with Q108V, V109K
notes: as for B1
B35: 107_A11 (scFv)
scFv: B1 scFv with Q108A, V109W
notes: as for B1
B36: 109 H2 (scFv)
scFv: B1 scFv with Q108W, V109E
notes: as for B1
B37: 107_B8 (scFv)
scFv: B1 scFv with Q108A, V109E
notes: as for B1
B38: 107_B5 (scFv)
scFv: B1 scFv with V109I
notes: as for B1
B39: 108_C12 (scFv)
scFv: B1 scFv with Q108A, V109S
notes: as for B1
B40: 107_C1 (scFv)
scFv: B1 scFv with Q108S, V109M
notes: as for B1
B41: 108_E10 (scFv)
scFv: B1 scFv with G106F, M107P, Q108W
notes: as for B1
B42: 108_D7 (scFv)
scFv: B1 scFv with Q108D, V109M
notes: as for B1
B43: 108_D3 (scFv)
scFv: B1 scFv with G106F, M107P, Q108Y
notes: as for B1
B44: 108_F6 (scFv)
scFv: B1 scFv with W105C, G106C, M107T, Q108I, V109E
notes: as for B1
B45: 107_B7 (scFv)
scFv: B1 scFv with G106C, Q108R, V109A
notes: as for B1
B46: 107_C5 (scFv)
scFv: B1 scFv with G106Y, M107P, Q108I
notes: as for B1
B47: 107_A4 (scFv)
scFv: B1 scFv with G106F, M107P, Q108Y, V109H
notes: as for B1
B48: 108_D2 (scFv)
scFv: B1 scFv with G106A, M107P, Q108W
notes: as for B1
B49: 108_F2 (scFv)
scFv: B1 scFv with Q108S, V109S
notes: as for B1
B50: 108_D5 (scFv)
scFv: B1 scFv with G106S, M107P, Q108H, V109T
notes: as for B1
B51: 107_A9 (scFv)
scFv: B1 scFv with Q108M, V109T
notes: as for B1
B52: 108_G6 (scFv)
scFv: B1 scFv with G106F, M107P, Q108V, V109W
notes: as for B1
B53: 107_A2 (scFv)
scFv: B1 scFv with V109S
notes: as for B1
B54: 107_C6 (scFv)
scFv: B1 scFv with Q108S
notes: as for B1
B55: 108_C11 (scFv)
scFv: B1 scFv with G106F, M107P, Q108I, V109I
notes: as for B1
B56: 108 E2 (scFv)
scFv: B1 scFv with G106T, M107P, Q108W
notes: as for B1
B57: 108_F11 (scFv)
scFv: B1 scFv with A100G, T101S, T102N, P103L, Y104S, G106Q, Q108D
notes: as for B1
B58: 108_E11 (scFv)
scFv: B1 scFv with W105C, G106S, M107R, Q108T, V109S
notes: as for B1

target: T1, MET928 (cMET protein derived from construct 25-928) (human, UniProt P08581 25-928); test: ELISA, soluble scFv
T1 construct: MET ectodomain, residues 1-24 are the leader; produced in Lec 8 cells; background text says the ectodomain is furin-cleaved into alpha (25-307) and beta chains; biotinylated form used in selections; also called MET928 extracellular domain; Met extracellular domain
T1 sequence (P08581 25-928): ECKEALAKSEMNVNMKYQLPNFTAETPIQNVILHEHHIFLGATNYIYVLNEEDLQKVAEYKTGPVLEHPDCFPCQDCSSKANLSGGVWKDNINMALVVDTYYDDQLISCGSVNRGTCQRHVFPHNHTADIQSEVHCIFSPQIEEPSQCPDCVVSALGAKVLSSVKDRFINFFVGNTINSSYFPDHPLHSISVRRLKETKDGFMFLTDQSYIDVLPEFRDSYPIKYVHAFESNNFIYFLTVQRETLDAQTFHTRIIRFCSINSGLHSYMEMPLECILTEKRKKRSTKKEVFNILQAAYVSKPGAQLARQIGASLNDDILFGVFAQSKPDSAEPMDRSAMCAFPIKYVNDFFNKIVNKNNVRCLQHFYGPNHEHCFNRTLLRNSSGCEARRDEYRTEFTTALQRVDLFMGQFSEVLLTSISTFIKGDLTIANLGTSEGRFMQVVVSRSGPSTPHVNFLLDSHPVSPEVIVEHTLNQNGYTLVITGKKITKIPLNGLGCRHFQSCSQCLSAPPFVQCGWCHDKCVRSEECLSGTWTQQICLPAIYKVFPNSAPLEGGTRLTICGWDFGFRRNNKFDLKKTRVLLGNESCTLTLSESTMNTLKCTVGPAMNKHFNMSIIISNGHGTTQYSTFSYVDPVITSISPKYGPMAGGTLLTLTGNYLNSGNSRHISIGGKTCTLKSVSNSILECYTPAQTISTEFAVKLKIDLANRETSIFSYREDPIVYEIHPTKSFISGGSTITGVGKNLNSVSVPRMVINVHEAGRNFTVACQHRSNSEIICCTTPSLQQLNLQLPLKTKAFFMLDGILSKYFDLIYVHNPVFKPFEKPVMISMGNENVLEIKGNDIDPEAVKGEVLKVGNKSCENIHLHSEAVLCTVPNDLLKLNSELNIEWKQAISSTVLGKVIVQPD

Binding result, binds:
B1
B2
B3
B4
B5
B6
B7
B8
B9
B10
B11
B12
B13
B14
B15
B16
B17
B18
B19
B20
B21
B22
B23
B24
B25
B26
B27
B28
B29
B30
B31
B32
B33
B34
B35
B36
B37
B38
B39
B40
B41
B42
B43
B44
B45
B46
B47
B48
B49
B50
B51
B52
B53
B54
B55
B56
B57
B58
